Measured values published in patent US20240067728A1 (BIO THERA SOLUTIONS, published 2024).
Like-named read-outs stand apart in the source and are kept apart here.

Key:
CD47-His antigen [1] = molecular target: T1, CD47-His antigen (human, UniProt Q08722 19-139); test: SPR (Biacore), method of Example 5; cell carries an unexplained mark ^
T1 construct: Human CD47 ECD with C-terminal 8xHIS tag, expressed in HEK293F; also called hCD47-His; human CD47-His

[2] = molecular target: T2, PD-L1 on CHO-PD-L1 cells (Promega PD-1/PD-L1 Blockade Bioassay) (UniProt Q9NZQ7 19-290, limits assumed); test: cell-based or functional assay
[3] = molecular target: T3, human PD-L1 on PD-L1-CHO cells (human, UniProt Q9NZQ7 19-290); test: FACS on PD-L1-CHO cells, PE-labeled anti-human Fc secondary antibody; MFI(Mean) against Con(nM)
T3 construct: whole, on cells; also called CHO cells overexpressing human PD-L1; PD-L1 expressed on the cell surface

[4] = molecular target: T2, PD-L1 on CHO-PD-L1 cells (Promega …); test: cell-based or functional assay; remark: listed apart in the source
[5] = molecular target: T2, PD-L1 on CHO-PD-L1 cells (Promega …); test: cell-based or functional assay; remark: listed apart in the source
PD-L1-His antigen [6] = molecular target: T4, PD-L1-His antigen (human, UniProt Q9NZQ7 19-238); test: SPR (Biacore T200), PD-L1-His immobilised on chip, antibody as mobile phase, 1:1 Binding fit
T4 construct: Human PD-L1 ECD with C-terminal 8xHIS tag, expressed in HEK293F; also called hPDL1-His; human PD-L1-His

[7] = molecular target: T3, human PD-L1 on PD-L1-CHO cells; test: FACS on PD-L1-CHO cells, PE-labeled anti-human Fc secondary antibody; MFI(Mean) against Con(nM); remark: listed apart in the source
[8] = molecular target: T5, human CD47 on CD47-CHO cells (human, UniProt Q08722 19-323); test: FACS on CD47-CHO cells, PE-labeled anti-human Fc secondary antibody; MFI(Mean) against Con(nM)
T5 construct: whole, on cells; also called CHO cells overexpressing human CD47; CD47 expressed on the cell surface

CD47-His antigen [9] = molecular target: T1, CD47-His antigen; test: SPR (Biacore), method of Example 5, Two State Reaction fit
PD-L1-His antigen [10] = molecular target: T4, PD-L1-His antigen; test: SPR (Biacore), method of Example 5, 1:1 Binding fit
CD47-His antigen [11] = molecular target: T1, CD47-His antigen; test: as above

T3 sequence (Q9NZQ7 19-290): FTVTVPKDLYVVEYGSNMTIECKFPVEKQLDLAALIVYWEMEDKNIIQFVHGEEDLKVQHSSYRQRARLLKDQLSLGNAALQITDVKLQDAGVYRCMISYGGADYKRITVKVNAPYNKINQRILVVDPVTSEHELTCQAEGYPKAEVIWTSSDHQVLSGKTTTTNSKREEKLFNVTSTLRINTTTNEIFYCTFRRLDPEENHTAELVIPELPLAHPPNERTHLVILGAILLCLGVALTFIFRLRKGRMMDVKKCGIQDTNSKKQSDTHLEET
T2 sequence (Q9NZQ7 19-290 limits assumed): as the sequence (Q9NZQ7 19-290) above
T4 sequence (Q9NZQ7 other isoform, or with tags, fused parts or gaps limits assumed): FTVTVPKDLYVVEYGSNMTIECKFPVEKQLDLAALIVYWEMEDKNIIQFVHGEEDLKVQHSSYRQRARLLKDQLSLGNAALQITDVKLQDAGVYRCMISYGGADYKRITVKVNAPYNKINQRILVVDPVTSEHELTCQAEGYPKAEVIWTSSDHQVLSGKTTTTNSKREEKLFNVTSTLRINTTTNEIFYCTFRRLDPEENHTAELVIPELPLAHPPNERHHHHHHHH

Row | Binder | Kd (CD47-His antigen [1]) | EC50 (read off the curve) [3] | EC50 (luciferase reporter, PD-1/PD-L1 blockade MOA assay; blocked partner: PD-1 on Jurkat-PD1 cells) [4] | EC50 (luciferase reporter, PD-1/PD-L1 blockade MOA assay; blocked partner: PD-1 on Jurkat-PD1 cells) [5] | EC50 (read off the curve) [7] | other results
1 | 47-R2-18 (antibody, human IgG1, kappa, V domains shown, Anti-CD47 monoclonal antibody, L12-6-VH with light chain R2-18) VH: QVQLQESGPGLVKPSETLSLTCTVSGGSLDNYYWSWIRQPPGKGLEWIGYIYYSGNTNYNPSLKSRVTISVDTSKNQFSLKLSSVTAADTAVYYCARGGRFLERYWGQGTLVTVSS VL: EIVLTQSPSSVSASVGDRITITCRASQGIGSWLAWYQQKPGKAPSLLIYAASSLQSGVPSRFSGSGSGTDFTLTISSLQTEDVAVYYCQQYFSTPYTFGQGTKVDIKR | 0.312 nM | – | – | – | – | –
2 | L1-R2-4-71 (antibody, human IgG1, kappa, V domains shown, also called parental anti-PD-L1 antibody L1-R2-4-71) VH: EVQLVESGGGLVQPGGSLRLSCAASGFTFSDSWIHWVRQAPGKGLEWVGWISPYGGSTYYADSYRSRFTISADTSKNTAYLQMNSLRAEDTAVYYCARRHWPGGFDYWGQGTLVTVSS VL: EIVLTQSPSSLSASVGDRVTITCLASQTIGTWLAWYQQKPGKSPQLLIYAASTLQSGVPSRFSGSGSGTDFTLTISSLQPEDVATYYCQQYYSTPRTFGQGTKVEIKR | – | ~0.2 nM | 0.087 mg/L | 0.292 mg/L | ~0.6 nM | EC50 (luciferase reporter, PD-1/PD-L1 blockade MOA assay; blocked partner: PD-1 on Jurkat-PD1 cells) [2]: 0.382 mg/L; EC50 (read off the curve) [2]: ~2 mg/L; Kd (PD-L1-His antigen [6]): 0.282 nM
3 | 47-R2-89 (antibody, human IgG1, kappa, V domains shown, Anti-CD47 monoclonal antibody, L12-6-VH with light chain R2-89) VH: QVQLQESGPGLVKPSETLSLTCTVSGGSLDNYYWSWIRQPPGKGLEWIGYIYYSGNTNYNPSLKSRVTISVDTSKNQFSLKLSSVTAADTAVYYCARGGRFLERYWGQGTLVTVSS VL: DIQMTQSPSSLSASVGDRVTITCLASQTIGTWLAWYQQKPGKSPQLLIYAASSLQSGVPSRFSGSGSGTDFTLTISSLQPEDVATYYCQQYYSTPYTFGQGTKVDIKR | 0.361 nM | – | – | – | – | –

The next lines start with results.

Row | Kd (CD47-His antigen [1]) | EC50 (read off the curve) [3] | EC50 (luciferase reporter, PD-1/PD-L1 blockade MOA assay; blocked partner: PD-1 on Jurkat-PD1 cells) [4] | EC50 (luciferase reporter, PD-1/PD-L1 blockade MOA assay; blocked partner: PD-1 on Jurkat-PD1 cells) [5] | EC50 (read off the curve) [7] | Binder | other results
4 | – | – | – | 0.295 mg/L | ~0.8 nM | BsAb-47 (bispecific antibody, human IgG1, kappa, Knob-into-hole IgG1-like bispecific with common light chain; first heavy chain is the anti-PD-L1 arm, second the anti-CD47 arm; also called anti-PD-L1/CD47 bispecific antibody BsAb-47) heavy 1: not shown heavy 2: not shown light: EIVLTQSPSSLSASVGDRVTITCLASQTIGTWLAWYQQKPGKSPQLLIYAASTLQSGVPSRFSGSGSGTDFTLTISSLQPEDVATYYCQQYYSTPRTFGQGTKVEIKRTVAAPSVFIFPPSDEQLKSGTASVVCLLNNFYPREAKVQWKVDNALQSGNSQESVTEQDSKDSTYSLSSTLTLSKADYEKHKVYACEVTHQGLSSPVTKSFNRGEC | EC50 (read off the curve) [8]: ~4 nM; Kd (CD47-His antigen [9]): 4.77 nM; Kd (PD-L1-His antigen [10]): 0.223 nM; Kd (CD47-His antigen [11]): 28.4 nM
5 | – | ~0.5 nM | 0.164 mg/L | – | – | BsAb-71-N297A (bispecific antibody, human IgG1, kappa, N297A, BsAb-71 with the N297A mutation in the Fc region; also called anti-PD-L1/CD47 bispecific antibody BsAb-71-N297A) heavy 1: EVQLVESGGGLVQPGGSLRLSCAASGFTFSDSWIHWVRQAPGKGLEWVGWISPYGGSTYYADSYRSRFTISADTSKNTAYLQMNSLRAEDTAVYYCARRHWPGGFDYWGQGTLVTVSSASTKGPSVFPLAPSSKSTSGGTAALGCLVKDYFPEPVTVSWNSGALTSGVHTFPAVLQSSGLYSLSSVVTVPSSSLGTQTYICNVNHKPSNTKVDKKVEPKSCDKTHTCPPCPAPELLGGPSVFLFPPKPKDTLMISRTPEVTCVVVDVSHEDPEVKFNWYVDGVEVHNAKTKPREEQYASTYRVVSVLTVLHQDWLNGKEYKCKVSNKALPAPIEKTISKAKGQPREPQVYTLPPCRDELTKNQVSLWCLVKGFYPSDIAVEWESNGQPENNYKTTPPVLDSDGSFFLYSKLTVDKSRWQQGNVFSCSVMHEALHNHYTQKSLSLSPGK heavy 2: not shown light: EIVLTQSPSSLSASVGDRVTITCLASQTIGTWLAWYQQKPGKSPQLLIYAASTLQSGVPSRFSGSGSGTDFTLTISSLQPEDVATYYCQQYYSTPRTFGQGTKVEIKRTVAAPSVFIFPPSDEQLKSGTASVVCLLNNFYPREAKVQWKVDNALQSGNSQESVTEQDSKDSTYSLSSTLTLSKADYEKHKVYACEVTHQGLSSPVTKSFNRGEC | –
